Measurements: publication PMC5141469 (Scientific Reports, 2016)
Values belong to the binder of their own block, whether it stands above or below them.

Target: T1, YajC (E. coli, UniProt P0ADZ7 1-110)
T1 construct: YajC of E. coli; also called subunit of SecDF-YajC; subunit of the holo-translocon (HTL)
T1 sequence (looked up): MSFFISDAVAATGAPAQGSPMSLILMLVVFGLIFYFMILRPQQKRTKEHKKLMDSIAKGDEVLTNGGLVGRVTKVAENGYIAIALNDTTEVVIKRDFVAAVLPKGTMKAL
Assay: SEC + AUC; co-purified detergent-solubilised (DDM) HTL; ultracentrifugation 16 h at 35,000 rpm, 10 °C, absorbance at 280 nm and interference
Details: both partners purified

- stoichiometry N: 1
B1: SecY (natural protein, E. coli, UniProt P0AGA2 1-443, looked up)
chain: MAKQPGLDFQSAKGGLGELKRRLLFVIGALIVFRIGSFIPIPGIDAAVLAKLLEQQRGTIIEMFNMFSGGALSRASIFALGIMPYISASIIIQLLTVVHPTLAEIKKEGESGRRKISQYTRYGTLVLAIFQSIGIATGLPNMPGMQGLVINPGFAFYFTAVVSLVTGTMFLMWLGEQITERGIGNGISIIIFAGIVAGLPPAIAHTIEQARQGDLHFLVLLLVAVLVFAVTFFVVFVERGQRRIVVNYAKRQQGRRVYAAQSTHLPLKVNMAGVIPAIFASSIILFPATIASWFGGGTGWNWLTTISLYLQPGQPLYVLLYASAIIFFCFFYTALVFNPRETADNLKKSGAFVPGIRPGEQTAKYIDKVMTRLTLVGALYITFICLIPEFMRDAMKVPFYFGGTSLLIVVVVIMDFMAQVQTLMMSSQYESALKKANLKGYGR
notes: SecY, subunit of the E. coli SecYEG protein-conducting channel; also called subunit of SecYEG; subunit of the holo-translocon (HTL)

- stoichiometry N: 1
B3: SecG (natural protein, E. coli, UniProt P0AG99 1-110, looked up)
chain: MYEALLVVFLIVAIGLVGLIMLQQGKGADMGASFGAGASATLFGSSGSGNFMTRMTALLATLFFIISLVLGNINSNKTNKGSEWENLSAPAKTEQTQPAAPAKPTSDIPN
notes: SecG, subunit of the E. coli SecYEG protein-conducting channel; also called subunit of SecYEG; subunit of the holo-translocon (HTL)

- stoichiometry N: 1
B4: YidC (natural protein, E. coli, UniProt P25714 1-548, looked up)
chain: MDSQRNLLVIALLFVSFMIWQAWEQDKNPQPQAQQTTQTTTTAAGSAADQGVPASGQGKLISVKTDVLDLTINTRGGDVEQALLPAYPKELNSTQPFQLLETSPQFIYQAQSGLTGRDGPDNPANGPRPLYNVEKDAYVLAEGQNELQVPMTYTDAAGNTFTKTFVLKRGDYAVNVNYNVQNAGEKPLEISSFGQLKQSITLPPHLDTGSSNFALHTFRGAAYSTPDEKYEKYKFDTIADNENLNISSKGGWVAMLQQYFATAWIPHNDGTNNFYTANLGNGIAAIGYKSQPVLVQPGQTGAMNSTLWVGPEIQDKMAAVAPHLDLTVDYGWLWFISQPLFKLLKWIHSFVGNWGFSIIIITFIVRGIMYPLTKAQYTSMAKMRMLQPKIQAMRERLGDDKQRISQEMMALYKAEKVNPLGGCFPLLIQMPIFLALYYMLMGSVELRQAPFALWIHDLSAQDPYYILPILMGVTMFFIQKMSPTTVTDPMQQKIMTFMPVIFTVFFLWFPSGLVLYYIVSNLVTIIQQQLIYRGLEKRGLHSREKKKS
notes: YidC of E. coli; also called membrane 'insertase' YidC; subunit of the holo-translocon (HTL); not shown: His6, C-terminal, kept

Continued, binder first:

B2: SecF (natural protein, E. coli, UniProt P0AG93 1-323, looked up)
chain: MAQEYTVEQLNHGRKVYDFMRWDYWAFGISGLLLIAAIVIMGVRGFNWGLDFTGGTVIEITLEKPAEIDVMRDALQKAGFEEPMLQNFGSSHDIMVRMPPAEGETGGQVLGSQVLKVINESTNQNAAVKRIEFVGPSVGADLAQTGAMALMAALLSILVYVGFRFEWRLAAGVVIALAHDVIITLGILSLFHIEIDLTIVASLMSVIGYSLNDSIVVSDRIRENFRKIRRGTPYEIFNVSLTQTLHRTLITSGTTLMVILMLYLFGGPVLEGFSLTMLIGVSIGTASSIYVASALALKLGMKREHMLQQKVEKEGADQPSILP
notes: SecF of E. coli; also called subunit of SecDF; subunit of the holo-translocon (HTL)
- stoichiometry N: 1

B5: SecE (natural protein, E. coli, UniProt P0AG96 1-127, looked up)
chain: MSANTEAQGSGRGLEAMKWVVVVALLLVAIVGNYLYRDIMLPLRALAVVILIAAAGGVALLTTKGKATVAFAREARTEVRKVIWPTRQETLHTTLIVAAVTAVMSLILWGLDGILVRLVSFITGLRF
notes: SecE, subunit of the E. coli SecYEG protein-conducting channel; also called subunit of SecYEG; subunit of the holo-translocon (HTL); not shown: His6, N-terminal, kept
- stoichiometry N: 1

B6: SecD (natural protein, E. coli, UniProt P0AG90 1-615, looked up)
chain: MLNRYPLWKYVMLIVVIVIGLLYALPNLFGEDPAVQITGARGVAASEQTLIQVQKTLQEEKITAKSVALEEGAILARFDSTDTQLRAREALMGVMGDKYVVALNLAPATPRWLAAIHAEPMKLGLDLRGGVHFLMEVDMDTALGKLQEQNIDSLRSDLREKGIPYTTVRKENNYGLSITFRDAKARDEAIAYLSKRHPDLVISSQGSNQLRAVMSDARLSEAREYAVQQNINILRNRVNQLGVAEPVVQRQGADRIVVELPGIQDTARAKEILGATATLEFRLVNTNVDQAAAASGRVPGDSEVKQTREGQPVVLYKRVILTGDHITDSTSSQDEYNQPQVNISLDSAGGNIMSNFTKDNIGKPMATLFVEYKDSGKKDANGRAVLVKQEEVINIANIQSRLGNSFRITGINNPNEARQLSLLLRAGALIAPIQIVEERTIGPTLGMQNIEQGLEACLAGLLVSILFMIIFYKKFGLIATSALIANLILIVGIMSLLPGATLSMPGIAGIVLTLAVAVDANVLINERIKEELSNGRTVQQAIDEGYRGAFSSIFDANITTLIKVIILYAVGTGAIKGFAITTGIGVATSMFTAIVGTRAIVNLLYGGKRVKKLSI
notes: SecD of E. coli; also called subunit of SecDF; subunit of the holo-translocon (HTL); not shown: His6, C-terminal, kept
- stoichiometry N: 1
